From the Immune Epitope Database (IEDB)

Experiments:
HLA-B*40:01 [1] = experiment: IEDB peptide-MHC binding, purified MHC/competitive/radioactivity; filed as Kd, often an IC50 or EC50 that approximates it; ≥ and ≤ were set here for values at or beyond the usual limits of such assays
HLA-B*44:02 = experiment: as above
HLA-A*32:01 = experiment: as above
HLA-A*02:03 = experiment: as above
HLA-A*02:02 = experiment: as above
HLA-A*02:06 = experiment: as above
HLA-A*23:01 = experiment: as above
HLA-A*24:02 = experiment: as above
HLA-B*44:03 = experiment: as above
HLA-A*01:01 [2] = experiment: IEDB peptide-MHC binding, purified MHC/direct/fluorescence; filed as Kd, often an IC50 or EC50 that approximates it; ≥ and ≤ were set here for values at or beyond the usual limits of such assays; conditions: source organism: Homo sapiens
HLA-A*11:01 = experiment: as above
HLA-A*03:01 = experiment: as above
HLA-A*69:01 = experiment: as above
HLA-B*58:01 = experiment: as above; conditions: source organism: Homo sapiens
HLA-A*30:02 = experiment: IEDB peptide-MHC binding, purified MHC/competitive/radioactivity; filed as Kd, often an IC50 or EC50 that approximates it; ≥ and ≤ were set here for values at or beyond the usual limits of such assays; conditions: source organism: Dengue virus 4 Philippines/H241/1956
HLA-A*01:01 [3] = experiment: as above
HLA-A*02:01 = experiment: IEDB peptide-MHC binding, purified MHC/direct/fluorescence; filed as Kd, often an IC50 or EC50 that approximates it; ≥ and ≤ were set here for values at or beyond the usual limits of such assays; conditions: source organism: Pseudomonas aeruginosa
HLA-A*26:01 = experiment: IEDB peptide-MHC binding, purified MHC/competitive/radioactivity; filed as Kd, often an IC50 or EC50 that approximates it; ≥ and ≤ were set here for values at or beyond the usual limits of such assays
HLA-B*40:01 [4] = experiment: IEDB peptide-MHC binding, purified MHC/direct/fluorescence; filed as Kd, often an IC50 or EC50 that approximates it; ≥ and ≤ were set here for values at or beyond the usual limits of such assays; conditions: source organism: Mammarenavirus lassaense
HLA-B*15:01 = experiment: as above; conditions: source organism: Salmonella enterica subsp. enterica serovar Typhimurium
[5] = source organism: Dengue virus 2 Jamaica/1409/1983
[6] = source organism: Dengue virus 4 Philippines/H241/1956
[7] = source organism: Dengue virus 1 Brazil/97-11/1997
[8] = source organism: Vaccinia virus WR
[9] = source organism: SARS coronavirus Tor2
[10] = source organism: Pseudomonas aeruginosa
[11] = source organism: Vaccinia virus Copenhagen

Sequence: EERVILAGPM
- Kd (HLA-B*40:01 [1]; [5]): 2740 nM
- Kd (HLA-B*44:02; [5]): 2280 nM

Sequence: GPISTLWEGN
- Kd (HLA-A*32:01; [5]): 9040 nM

Sequence: SLEKAANVQW
- Kd (HLA-B*44:02; [6]): 10700 nM

Sequence: RTAGMIIML
- Kd (HLA-A*32:01; source organism: Dengue virus 2 Peru/IQT2913/1996): 96.5 nM

Sequence: SLGILCVSI
- Kd (HLA-A*32:01; [7]): 238 nM

Sequence: STIANSNII
- Kd (HLA-A*32:01; [8]): 14.3 nM
- Kd (HLA-A*02:03; [8]): 1470 nM
- Kd (HLA-A*02:02; [8]): 6120 nM
- Kd (HLA-A*02:06; [8]): 1240 nM

Sequence: WYMWLGARF
- Kd (HLA-A*23:01; [5]): 20.2 nM
- Kd (HLA-A*24:02; [5]): 16.2 nM

Sequence: DEDNPYKTW
- Kd (HLA-B*44:03; [7]): 640 nM
- Kd (HLA-B*44:02; [7]): 519 nM

Sequence: KEGDQYIYM
- Kd (HLA-B*40:01 [1]; source organism: Dengue virus 1 Nauru/West Pac/1974): 45.1 nM

Sequence: WNSGYDWITD
- Kd (HLA-A*32:01; [7]): 4830 nM

Sequence: IISYIILFI
- Kd (HLA-A*32:01; [8]): ≥ 27600 nM
- Kd (HLA-A*02:03; [8]): 58.7 nM
- Kd (HLA-A*02:02; [8]): 2.78 nM
- Kd (HLA-A*02:06; [8]): 27.1 nM

Sequence: STDHIPILY
- Kd (HLA-A*01:01 [2]): 148 nM
- Kd (HLA-A*11:01; source organism: Homo sapiens): 381 nM
- Kd (HLA-A*03:01; source organism: Homo sapiens): 3150 nM
- Kd (HLA-A*69:01; source organism: Homo sapiens): 7420 nM
- Kd (HLA-B*58:01): 2030 nM

Sequence: VTLFIDRGSI
- Kd (HLA-A*02:03; [8]): 2250 nM
- Kd (HLA-A*02:02; [8]): 3830 nM
- Kd (HLA-A*02:06; [8]): 3010 nM

Sequence: DFKGKTVWF
- Kd (HLA-A*23:01; [5]): 14400 nM

Sequence: MEKYQLAVTI
- Kd (HLA-B*44:02; [5]): 331 nM

Sequence: CNLTSAWVMY
- Kd (HLA-A*30:02): 554 nM

Sequence: FTNMEAQLV
- Kd (HLA-A*01:01 [3]; source organism: Dengue virus 3 Sri Lanka/1266/2000): 403 nM

Sequence: EIKAEMQLKI
- Kd (HLA-A*02:03; [8]): 4760 nM
- Kd (HLA-A*02:02; [8]): 16900 nM
- Kd (HLA-A*02:06; [8]): 14300 nM

Sequence: YTKHSMLTNA
- Kd (HLA-A*02:03; [8]): 141 nM
- Kd (HLA-A*02:02; [8]): 3900 nM
- Kd (HLA-A*02:06; [8]): 7340 nM

Sequence: AELEEGVYR
- Kd (HLA-B*44:03; source organism: Dengue virus 3 Martinique/1243/1999): 9270 nM

Sequence: RSIMGSNNI
- Kd (HLA-A*32:01; [8]): 141 nM

Sequence: FISYNRHNDT
- Kd (HLA-A*02:03; [8]): 4930 nM
- Kd (HLA-A*02:02; [8]): 6840 nM
- Kd (HLA-A*02:06; [8]): 11300 nM

Sequence: LMWFIISIV
- Kd (HLA-A*02:03; [9]): 7.18 nM
- Kd (HLA-A*02:02; [9]): 60.1 nM
- Kd (HLA-A*02:06; [9]): 26.8 nM

Sequence: GVFKVWHPI
- Kd (HLA-A*11:01; [10]): 6490 nM
- Kd (HLA-A*69:01; [10]): 1340 nM
- Kd (HLA-A*02:01): 5720 nM

Sequence: KINNFANEF
- Kd (HLA-A*32:01; [8]): 2.08 nM

Sequence: GTSVIRSNI
- Kd (HLA-A*02:03; [8]): 44.8 nM
- Kd (HLA-A*02:02; [8]): 386 nM
- Kd (HLA-A*02:06; [8]): 1610 nM

Sequence: ITISEDGSM
- Kd (HLA-A*26:01; [5]): 2990 nM

Sequence: MIYDLNAVTT
- Kd (HLA-A*02:03; [8]): 477 nM
- Kd (HLA-A*02:02; [8]): 897 nM
- Kd (HLA-A*02:06; [8]): 429 nM

Sequence: YSDPLALKE
- Kd (HLA-A*01:01 [3]; [5]): 311 nM

Sequence: SEVSNVQRL
- Kd (HLA-B*40:01 [4]): 70.9 nM

Sequence: FAFIDFSKST
- Kd (HLA-A*02:03; [8]): 2410 nM
- Kd (HLA-A*02:02; [8]): 11800 nM
- Kd (HLA-A*02:06; [8]): 1410 nM

Sequence: PLPCQLMYAL
- Kd (HLA-A*02:03; [8]): 8710 nM
- Kd (HLA-A*02:02; [8]): 163 nM
- Kd (HLA-A*02:06; [8]): 9810 nM

Sequence: ILSCIFAFI
- Kd (HLA-A*02:03; [11]): 3.08 nM
- Kd (HLA-A*02:02; [11]): 0.79 nM
- Kd (HLA-A*02:06; [11]): 8.84 nM

Sequence: FIISTLNKI
- Kd (HLA-A*02:03; [8]): 0.418 nM
- Kd (HLA-A*02:02; [8]): 1.65 nM
- Kd (HLA-A*02:06; [8]): 5.84 nM

Sequence: KYLYLWSFK
- Kd (HLA-A*03:01; source organism: Clostridium botulinum): 167 nM

Sequence: DMCDIYLLY
- Kd (HLA-A*23:01; [8]): 216 nM
- Kd (HLA-A*24:02; [8]): 2070 nM

Sequence: IQRDQVTDY
- Kd (HLA-B*15:01): 239 nM

Sequence: NVTYNIKPV
- Kd (HLA-A*02:03; [8]): 153 nM
- Kd (HLA-A*02:02; [8]): ≥ 22800 nM
- Kd (HLA-A*02:06; [8]): 855 nM

Sequence: PISDYSAEV
- Kd (HLA-A*02:03; [8]): 267 nM
- Kd (HLA-A*02:02; [8]): 716 nM
- Kd (HLA-A*02:06; [8]): 2800 nM

Sequence: VILKDPRIA
- Kd (HLA-A*02:03; [8]): 603 nM
- Kd (HLA-A*02:02; [8]): 10600 nM
- Kd (HLA-A*02:06; [8]): 318 nM

Sequence: QETWNRQDL
- Kd (HLA-B*40:01 [1]; [7]): 72.8 nM

Sequence: YVIKVSARV
- Kd (HLA-A*26:01; source organism: Homo sapiens): 8.61 nM

Sequence: EEKLSVVLF
- Kd (HLA-B*44:02; source organism: Homo sapiens): 143 nM

Sequence: RAAIDRQVSV
- Kd (HLA-A*02:03; [8]): 40.8 nM
- Kd (HLA-A*02:02; [8]): 626 nM
- Kd (HLA-A*02:06; [8]): 212 nM

Sequence: STDGPERVIL
- Kd (HLA-A*01:01 [3]; [6]): 18700 nM
